The values that follow come from article PMC12711160 (Chemmedchem, 2025).

Entries after “also recorded” stand apart in the source; their conditions may differ.

Data set [1] can be described thus: human blood plasma/DPBS (Biowest; 1:1, v/v). The settings on record: 37 °C, up to 72 h.
Data set [2] concerns ERα. The data set can be described thus: Luciferase reporter gene assay, HEK293 cells expressing hY1R-eYFP, ERα-pEGFP and 3xERE-TATA-luciferase. Type of data set: cell-based. The settings on record: ERα and ERE-luciferase, stimulation 24 h, normalized to 4-OHT, at least three independent experiments, n. d. = could not be determined. The text has this: B) ERα‐pEGFP and TATA‐luciferase.
Therefore, we tested HEK293 cells that transiently express hY1R, ERα, and an ERα activity‐dependent luciferase. ERα forms dimers and translocates into the nucleus upon activation, where it binds to the estrogen response element (ERE) upstream of the luciferase gene and induces luciferase expression.
Background: Reporter assays use an easily measured gene product as a stand-in for the process of interest.

In data set [3] the test system is ERα. Description: Luciferase reporter gene assay, control HEK293 cells expressing only ERα-pEGFP and TATA-luciferase (w/o hY1R). The settings on record: read-out: EC50 luciferase reporter gene assay, w/o hY1R; HEK293 cells expressing ERα and ERE-luciferase but not hY1R; stimulation 24 h; normalized to 4-OHT; n. d. = could not be determined.
Protocol: Values were normalized to the native ligands (NPY for hY1R and hY2R, hPP for hY4R). Data points represent mean ± SEM from n ≥ 2 independent experiments with technical triplicates. Luciferase reporter gene assay in transiently transfected HEK293‐cells expressing hY1R‐eYFP. […] Data points represent mean ± SEM from n ≥ 3 independent experiments with technical triplicates. Calculated pEC50‐ and Emax‐values are shown as bar graphs.
HEK293‐cells were transiently transfected with 0.083 µg/well hY1R‐eYFP‐pVitro2, pEGFP‐c1‐ERα (kindly provided by Michael Mancini (Addgene plasmid #28230; http://n2t.net/addgene:28230; RRID:Addgene_28230))^[ [58] ^] and 3xERE‐Tata‐Luc (kindly provided by Donald McDonnell (Addgene plasmid #11354; http://n2t.net/addgene:11354; RRID:Addgene_11354))^[ [59] ^] parallel to cell seeding. For a control experiment without hY1R‐expression, pEGFP‐N1 together with pEGFP‐c1‐ERα and 3xERETata‐Luc was transfected instead. Lipofectamine2000 (Invitrogen) was used as a transfection reagent according to the manufacturer's protocol. […] Luciferase activity was detected with ONE Glo Luciferase Assay System (Promega) following the manufacturer's specifications. Each concentration was measured at least in technical triplicates and relative luminescence units (RLU) were obtained by normalization to free 4‐OH‐Tmx. Concentration response curves were calculated with Graph Pad Prism 9.
The nature of data set [4]: DMEM/Ham‘s w/o FBS, pH = 7.04.
The nature of data set [5]: DMEM/Ham‘s with 15% FBS, pH = 8.01.
The nature of data set [6]: luciferase reporter gene assay medium (DMEM/Ham‘s w/o phenolred, w/o FBS, pH = 7.41).
The target in data set [7] is human neuropeptide Y (NPY) receptor type 1 (hY1R), in stably transfected COS-7 cells (human) (UniProt P25929).
human neuropeptide Y (NPY) receptor type 1 (hY1R), in stably transfected COS-7 cells (human), sequence (P25929 whole entry): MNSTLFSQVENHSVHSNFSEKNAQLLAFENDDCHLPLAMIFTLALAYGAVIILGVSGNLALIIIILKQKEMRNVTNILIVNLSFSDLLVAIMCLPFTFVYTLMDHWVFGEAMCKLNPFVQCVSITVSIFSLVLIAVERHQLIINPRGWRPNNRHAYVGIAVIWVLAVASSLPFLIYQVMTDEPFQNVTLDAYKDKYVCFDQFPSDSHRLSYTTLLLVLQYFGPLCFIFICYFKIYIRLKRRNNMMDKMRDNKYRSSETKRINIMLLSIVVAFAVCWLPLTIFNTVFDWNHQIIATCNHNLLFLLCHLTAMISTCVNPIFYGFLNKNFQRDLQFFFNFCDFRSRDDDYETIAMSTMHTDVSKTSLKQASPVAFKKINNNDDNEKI
The target of data set [8] is human neuropeptide Y receptor type 4 (hY4R), in stably transfected COS-7 cells (human) (UniProt P50391).
human neuropeptide Y receptor type 4 (hY4R), in stably transfected COS-7 cells (human), sequence (P50391 whole entry): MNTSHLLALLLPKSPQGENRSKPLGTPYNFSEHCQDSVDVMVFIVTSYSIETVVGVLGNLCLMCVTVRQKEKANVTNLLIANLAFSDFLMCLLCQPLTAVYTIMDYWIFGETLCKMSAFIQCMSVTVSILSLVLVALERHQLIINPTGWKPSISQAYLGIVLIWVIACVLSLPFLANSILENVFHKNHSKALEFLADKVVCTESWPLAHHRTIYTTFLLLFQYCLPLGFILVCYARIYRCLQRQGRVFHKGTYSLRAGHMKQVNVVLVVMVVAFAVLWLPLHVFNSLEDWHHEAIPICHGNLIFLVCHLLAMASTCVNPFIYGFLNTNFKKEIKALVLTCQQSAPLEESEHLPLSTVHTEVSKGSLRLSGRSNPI
Data set [9] concerns the target human neuropeptide Y (NPY) receptor type 1 (hY1R), in stably transfected COS-7 cells (human) (UniProt P25929). The source holds these as a separate data set.
Data set [10] has as its target human neuropeptide Y receptor type 4 (hY4R), in stably transfected COS-7 cells (human) (UniProt P50391). This is another data set of the same source.
Data set [11] concerns the target human neuropeptide Y receptor type 5 (hY5R), in stably transfected COS-7 cells (human) (UniProt Q15761).
The target is the same in data set [12]. This is another data set of the same source.
The target in the next data set is hY4R‐eYFP (human) (UniProt P50391).
hY4R‐eYFP (human), sequence (P50391 whole entry): as above

human neuropeptide Y receptor type 5 (hY5R), in stably transfected COS-7 cells (human), sequence (Q15761 whole entry): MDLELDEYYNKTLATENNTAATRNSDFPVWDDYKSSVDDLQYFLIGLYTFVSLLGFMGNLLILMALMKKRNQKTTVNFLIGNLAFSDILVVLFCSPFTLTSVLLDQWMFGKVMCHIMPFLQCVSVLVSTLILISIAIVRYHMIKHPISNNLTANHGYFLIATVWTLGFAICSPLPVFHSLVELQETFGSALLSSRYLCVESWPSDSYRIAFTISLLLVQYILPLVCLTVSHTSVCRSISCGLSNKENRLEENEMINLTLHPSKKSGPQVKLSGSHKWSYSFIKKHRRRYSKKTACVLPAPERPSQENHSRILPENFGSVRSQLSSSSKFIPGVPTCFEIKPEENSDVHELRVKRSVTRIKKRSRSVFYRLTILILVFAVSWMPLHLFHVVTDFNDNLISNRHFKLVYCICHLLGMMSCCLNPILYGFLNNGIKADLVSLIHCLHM

As to “YPSK(GFL-G(13C2,15N)- COCH2-4-OHT)PDFPGEDAPA(13C3,15N)EDLARYYSALRHYINL(13C6,15N)ITRPRY-NH2”, in data set [1], the cleaved bond result was “Y1-P2; also recorded: P2-S3; also recorded: Y21-S22; also recorded: L24-R25; also recorded: L30-I31; also recorded: R35-Y36”.
In the case of “YPSK(COCH2-4-OHT)PDFPGEDAPAEDLK(Tam)RYYSALRHYINLITRPRY-NH2”, the cleaved bond result in data set [1] is “R35-Y36, minor”.
Regarding `CC/C(=C(\c1ccc(O)cc1)c1ccc(OCCN(C)C)cc1)c1ccccc1` [4‐OHT, 4‐hydroxytamoxifen], the EC50 with ERα [2] came to 9.4 nM; with ERα [3], 5.8 nM.
Regarding [K4(Diamine-4-OHT),F7,P34]-pNPY, the fragment found result in the data set “DPBS, pH = 7.4” is “peptide without 4-OHT”; in data set [4], “peptide without 4-OHT”; in [5], “peptide without 4-OHT”; in [6], “peptide without 4-OHT”.
Regarding [F^7,P^34]‐pNPY (peptide), the calcium flux assay (receptor activation), EC50 in data set [7] turned out to be 0.1 nM; in data set [8] it was 0.3 nM. The IP1 accumulation assay (G-protein activation), EC50 was 1.2 nM in data set [9] and 0.4 nM in [10].
As for “porcine neuropeptide Y (pNPY) (from UniProt P01304 10-45)”, the calcium flux assay (receptor activation), EC50 in [11] came to 7.2 nM. Further, the IP1 accumulation assay (G-protein activation), EC50 in data set [12] worked out at 3.4 nM.
For the molecule “4‐OHT conjugate 1 of [F^7,P^34]‐pNPY (w/o linker) (peptide)”, the calcium flux assay (receptor activation), EC50 worked out at 0.1 nM in [7] and 0.6 nM in data set [8].
As to APLEPVYPGDNATPEQMAQYAADLRRYINMLTRPRY [human pancreatic polypeptide (hPP)], the calcium flux assay (receptor activation), EC50 in [8] was 0.1 nM. The molecule further showed an arrestin-3 recruitment to the receptor (NanoBRET), EC50 with hY4R‐eYFP (human) of 3.9 nM. The molecule further registered an IP1 accumulation assay (G-protein activation), EC50 in [10] of 0.2 nM.
